Here are results for one molecule from doi:10.1101/2025.11.22.689938 (bioRxiv, 2025).

This test concerns the target HA-JMJD5 (wildtype, pEF6) (human, UniProt Q8N371 1-416). Description: co-IP.

HA-JMJD5 (wildtype, pEF6), sequence (Q8N371 whole entry): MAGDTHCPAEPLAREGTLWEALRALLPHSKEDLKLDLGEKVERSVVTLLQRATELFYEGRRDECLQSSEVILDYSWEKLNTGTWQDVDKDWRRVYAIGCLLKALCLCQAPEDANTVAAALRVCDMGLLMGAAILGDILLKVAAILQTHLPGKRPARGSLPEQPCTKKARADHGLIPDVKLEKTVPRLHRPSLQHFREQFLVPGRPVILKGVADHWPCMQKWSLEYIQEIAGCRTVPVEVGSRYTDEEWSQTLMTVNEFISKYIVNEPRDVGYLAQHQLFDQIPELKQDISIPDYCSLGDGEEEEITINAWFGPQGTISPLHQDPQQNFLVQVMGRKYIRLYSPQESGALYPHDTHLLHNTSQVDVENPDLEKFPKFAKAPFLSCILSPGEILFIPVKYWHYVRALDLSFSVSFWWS

B1: RCCD1-FLAG (wildtype, pIHZ) (natural protein)
chain: MAEERPGAWFGFGFCGFGQELGSGRGRQVHSPSPLRAGVDICRVSASWSYTAFVTRGGRLELSGSASGAAGRCKDAWASEGLLAVLRAGPGPEALLQVWAAESALRGEPLWAQNVVPEAEGEDDPAGEAQAGRLPLLPCARAYVSPRAPFYRPLAPELRARQLELGAEHALLLDAAGQVFSWGGGRHGQLGHGTLEAELEPRLLEALQGLVMAEVAAGGWHSVCVSETGDIYIWGWNESGQLALPTRNLAEDGETVAREATELNEDGSQVKRTGGAEDGAPAPFIAVQPFPALLDLPMGSDAVKASCGSRHTAVVTRTGELYTWGWGKYGQLGHEDTTSLDRPRRVEYFVDKQLQVKAVTCGPWNTYVYAVEKGKS
Turning to B1, the binding result is “binds”.
